What was measured:
[1] = target: T1, Recombinant human MIF immobilized on ELISA plates (oxMIF) (human, UniProt P14174 2-115); assay: ELISA on immobilized human MIF (oxMIF), protein L-HRP detection; EC50 of 4-parameter fit taken as KD
T1 construct: also called immobilized MIF; oxidized MIF
Method: (§1) Material and Methods: Recombinant human MIF diluted in PBS at 1 μg/ml was immobilized into ELISA plates overnight at 4° C. (transforming MIF to oxMIF according to Thiele et al., 2015). After blocking, serial dilutions of anti-oxMIF antibodies were added to the plates. Finally, bound antibodies were detected using a protein L-HRP conjugate and tetramethylbenzidine (TMB) as substrate. The chromogenic reaction was stopped with 3M H₂SO₄ and OD was measured at 450 nm. Data from different experiments were normalized to the maximal OD of the anti-oxMIF antibody C0008 (=100%) of the respective experiment and EC₅₀ values were determined by 4-parameter fit using GraphPad Prism (and the mean of two experiments is shown).

[2] = target: T1, Recombinant human MIF immobilized on …; assay: ELISA on immobilized human MIF (oxMIF), anti-human IgG (Fc)-HRP detection; EC50 taken as apparent KD
Method: Recombinant human MIF diluted in PBS at 1 μg/ml was immobilized into ELISA plates overnight at 4° C. (transforming MIF to oxMIF according to Thiele et al., 2015). After blocking, serial dilutions of anti-oxMIF antibodies with and without DFO* conjugation (DFO* conjugation is described in Example 19) were added to the plates. Finally, bound antibodies were detected using a Goat anti-human IgG (Fc)-HRP conjugate and tetramethylbenzidine (TMB) as substrate. The chromogenic reaction was stopped with 3M H₂SO₄ and OD was measured at 450 nm. If data from different experiments were combined, the data were normalized to the maximal OD of the anti-oxMIF antibody C0008 (=100%) of the respective experiment and EC₅₀ values were determined by 4-parameter fit using GraphPad Prism (and the mean+/−SEM of two experiments is shown).
Results and conclusion: The binding of the newly designed antibodies towards immobilized MIF (oxMIF) was measured over a broad range of concentrations and the resulting binding curves are illustrated in FIG. 19. The anti-oxMIF antibody C0008 was used as reference for oxMIF binding. […] Additionally, DFO* conjugation of the newly designed Fc-silenced antibodies C0115 and C0118 has not changed their affinity (FIG. 19B).

[3] = target: T1, Recombinant human MIF immobilized on …; assay: ELISA on immobilized human MIF (oxMIF)
Method: as §1
Results and conclusion: The binding of the newly designed antibodies towards immobilized MIF (oxMIF) was measured over a broad range of concentrations and the resulting binding curves are illustrated in FIG. 8. The anti-oxMIF antibody C0008 was used as reference for oxMIF binding.

[4] = target: human FcγRIIIA receptor, V158 (high affinity allotype) (human, UniProt P08637 17-254); assay: cell-based or functional assay
human FcγRIIIA receptor, V158 (high affinity allotype), sequence (P08637 17-254 F176V): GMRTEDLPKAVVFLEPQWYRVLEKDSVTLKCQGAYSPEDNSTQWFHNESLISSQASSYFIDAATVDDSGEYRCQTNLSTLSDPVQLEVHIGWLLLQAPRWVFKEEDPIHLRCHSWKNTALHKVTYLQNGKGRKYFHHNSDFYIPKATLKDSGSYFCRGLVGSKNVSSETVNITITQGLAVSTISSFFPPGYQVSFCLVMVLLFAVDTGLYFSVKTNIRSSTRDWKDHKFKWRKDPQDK

T1 sequence (P14174 2-115 limits assumed): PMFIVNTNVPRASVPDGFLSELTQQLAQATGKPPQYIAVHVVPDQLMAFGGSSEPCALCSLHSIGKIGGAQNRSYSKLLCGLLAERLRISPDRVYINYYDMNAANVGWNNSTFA

Binder	Kd [1] [nM]	Kd [2] [nM]	fold reduction in affinity compared to C0076 [3] [fold]	EC50 (read off the curve), ADCC reporter luminescence [4] [nM]
C0008 (Imalumab control antibody) (antibody, human IgG1, kappa, V domains shown, also called Bax69) VH: EVQLLESGGGLVQPGGSLRLSCAASGFTFSIYSMNWVRQAPGKGLEWVSSIGSSGGTTYYADSVKGRFTISRDNSKNTLYLQMNSLRAEDTAVYYCAGSQWLYGMDVWGQGTTVTVSS VL: DIQMTQSPSSLSASVGDRVTITCRSSQRIMTYLNWYQQKPGKAPKLLIFVASHSQSGVPSRFRGSGSETDFTLTISGLQPEDSATYYCQQSFWTPLTFGGGTKVEIKR	0.7	0.19	–	–
C0077 (antibody, human IgG1, kappa, name in Kabat numbering, V domains shown, IgG1, wt Fc) VH: EVQLQESGGGLVQPGGSLRLSCAASGFTFSIYSMNWVRQAPGKGLEWVSSIGSSGGTTYYADSVKGRFTISRDNSKNTLYLQMNSLRAEDTAVYYCAGSQWLYGMDVWGQGTTVTVSS VL: DIQMTQSPSSLSASVGDRVTITCRSSQRIMTYLNWFQQKPGKAPKLLIYVGSHSQSGVPSRFRGSGSETDFTLTISGLQPEDSATYYCQQSFWTPLTFGGGTKVEIKR	5.2	–	5	–
C0115 (antibody, human IgG1, kappa, L234A L235A, IgG1 with Fc silencing L234A/L235A (EU numbering); also called Fc silenced anti-oxMIF antibody C0115) heavy: not shown light: DIQMTQSPSSLSASVGDRVTITCRSSQRIMTYLNWYQQKPGKAPKLLIYVGSHSQSGVPSRFRGSGSETDFTLTISGLQPEDSATYYCQQSFFTPLTFGGGTKVEIKRTVAAPSVFIFPPSDEQLKSGTASVVCLLNNFYPREAKVQWKVDNALQSGNSQESVTEQDSKDSTYSLSSTLTLSKADYEKHKVYACEVTHQGLSSPVTKSFNRGEC	–	0.28	–	–
C0118 (antibody, human IgG1, kappa, L234A L235A, IgG1 with Fc silencing L234A/L235A (EU numbering); also called Fc silenced anti-oxMIF antibody C0118) heavy: not shown light: DIQMTQSPSSLSASVGDRVTITCRSSQRILTYLNWYQQKPGKAPKLLIYVGSHSQSGVPSRFRGSGSETDFTLTISGLQSEDSATYYCQQSFFTPLTFGGGTKVEIKRTVAAPSVFIFPPSDEQLKSGTASVVCLLNNFYPREAKVQWKVDNALQSGNSQESVTEQDSKDSTYSLSSTLTLSKADYEKHKVYACEVTHQGLSSPVTKSFNRGEC	–	0.26	–	–
C0076 (antibody, human IgG1, kappa, V domains shown, IgG1, wt Fc) VH: EVQLQESGGGLVQPGGSLRLSCAASGFTFSIYSMNWVRQAPGKGLEWVSSIGSSGGTTYYADSVKGRFTISRDNSKNTLYLQMNSLRAEDTAVYYCAGSQWLYGMDVWGQGTTVTVSS VL: DIQMTQSPSSLSASVGDRVTITCRSSQRIMTYLNWYQQKPGKAPKLLIYVGSHSQSGVPSRFRGSGSETDFTLTISGLQPEDSATYYCQQSFWTPLTFGGGTKVEIKR	1.1	–	–	–
C0078 (antibody, human IgG1, kappa, IgG1, wt Fc) heavy: not shown light: DIQMTQSPSSLSASVGDRVTITCRSSQRIMTYLNWYQQKPGKAPKLLIYVGSHSQSGVPSRFRGSGSETDFTLTISGLQPEDSATYYCQQSFFTPLTFGGGTKVEIKRTVAAPSVFIFPPSDEQLKSGTASVVCLLNNFYPREAKVQWKVDNALQSGNSQESVTEQDSKDSTYSLSSTLTLSKADYEKHKVYACEVTHQGLSSPVTKSFNRGEC	1.6	–	–	–

More lines, now with the values ahead:

Kd [1] [nM]	Kd [2] [nM]	fold reduction in affinity compared to C0076 [3] [fold]	EC50 (read off the curve), ADCC reporter luminescence [4] [nM]	Binder
1	–	–	–	C0073 (antibody, human IgG1, kappa, IgG1, wt Fc) heavy: not shown light: DIQMTQSPSSLSASVGDRVTITCRSSQRIMTYLNWYQQKPGKAPKLLIYVGSHSQSGVPSRFRGSGSETDFTLTISGLQPEDSATYYCQQSFFTPLTFGGGTKVEIKRTVAAPSVFIFPPSDEQLKSGTASVVCLLNNFYPREAKVQWKVDNALQSGNSQESVTEQDSKDSTYSLSSTLTLSKADYEKHKVYACEVTHQGLSSPVTKSFNRGEC
0.5	–	–	~3	C0083 (antibody, human IgG1, kappa, IgG1, wt Fc; also called parent antibody of C0115) heavy: not shown light: DIQMTQSPSSLSASVGDRVTITCRSSQRIMTYLNWYQQKPGKAPKLLIYVGSHSQSGVPSRFRGSGSETDFTLTISGLQPEDSATYYCQQSFFTPLTFGGGTKVEIKRTVAAPSVFIFPPSDEQLKSGTASVVCLLNNFYPREAKVQWKVDNALQSGNSQESVTEQDSKDSTYSLSSTLTLSKADYEKHKVYACEVTHQGLSSPVTKSFNRGEC
0.5	–	–	~3	C0090 (antibody, human IgG1, kappa, IgG1, wt Fc; also called parent antibody of C0118) heavy: not shown light: DIQMTQSPSSLSASVGDRVTITCRSSQRILTYLNWYQQKPGKAPKLLIYVGSHSQSGVPSRFRGSGSETDFTLTISGLQSEDSATYYCQQSFFTPLTFGGGTKVEIKRTVAAPSVFIFPPSDEQLKSGTASVVCLLNNFYPREAKVQWKVDNALQSGNSQESVTEQDSKDSTYSLSSTLTLSKADYEKHKVYACEVTHQGLSSPVTKSFNRGEC

— patent US20240307562A1 (ONCOONE RESEARCH AND DEVELOPMENT, published 2024)
